In assay [1] the target is T1, Mouse importin α2 lacking the IBB domain (mImpα2DIBB) (mouse, UniProt P52293 70-529). Description: crystal structure; co-purified complex of AAV 09YN Cap-BR and IMPα2; hanging drop, 0.75 M Na citrate, 0.1 M HEPES pH 7.5, 22 °C; 2.4 Å. The note with it: both partners purified.
The target of assay [2] is T1, Mouse importin α2 lacking the IBB …. Description: fluorescence polarisation; FITC-tagged peptide ('2 nm' [sic]) with importin two-fold serially diluted from 4.5 µM across 23 wells, 200 µl, GST Buffer A (50 mM Tris, 125 mM NaCl); three independent experiments. The note with it: both partners purified.

Where no end group is shown, it is not given here. The star is where a group is joined. FITC = O=C1OC2(c3ccc(O)cc3Oc3cc(O)ccc32)c2ccc(NC(=S)*)cc21; Ahx = NCCCCCC(=O)O

B1: AAV 09YN Cap-BR (N-terminal domain fragment of AAV 09YN VP1 encompassing basic regions 1-3, residues 112-169) (domain or fragment)
chain: ANALFQAKKRVLEPFGLVEGEPEPKKTPSVKRPHASPDSSSGVGKKGDQPARKRLDFG
notes: not shown: GST, N-terminal, cleaved
B1: the binding result in assay [1] is listed as “binds”.

B2: Synthetic FITC labelled AAV 09YN Cap-BR peptide (residues 117-167) (peptide)
peptide: {FITC-Ahx}-QAKKRVLEPFGLVEGEPEPKKTPSVKRPHASPDSSSGVGKKGDQPARKRLD
notes: also called FITC-tagged AAV 09YN Cap-BR peptide; non-mutated 09YN Cap-BR; source: synthetic peptide (GenScript)
In turn, B2 returned a dissociation constant (Kd) in assay [2] of 656 nM.

One may read the Kd as the concentration at which binding is half-saturated. A higher Kd goes with lower affinity.

The record behind these values is article PMC10999750, “Structural basis for nuclear import of bat adeno-associated virus capsid protein” (The Journal of General Virology, 2024).
